Biological target: NFIA full-length (human, UniProt Q12857 1-509)
Test: BLI

NFIA full-length, sequence (Q12857 whole entry): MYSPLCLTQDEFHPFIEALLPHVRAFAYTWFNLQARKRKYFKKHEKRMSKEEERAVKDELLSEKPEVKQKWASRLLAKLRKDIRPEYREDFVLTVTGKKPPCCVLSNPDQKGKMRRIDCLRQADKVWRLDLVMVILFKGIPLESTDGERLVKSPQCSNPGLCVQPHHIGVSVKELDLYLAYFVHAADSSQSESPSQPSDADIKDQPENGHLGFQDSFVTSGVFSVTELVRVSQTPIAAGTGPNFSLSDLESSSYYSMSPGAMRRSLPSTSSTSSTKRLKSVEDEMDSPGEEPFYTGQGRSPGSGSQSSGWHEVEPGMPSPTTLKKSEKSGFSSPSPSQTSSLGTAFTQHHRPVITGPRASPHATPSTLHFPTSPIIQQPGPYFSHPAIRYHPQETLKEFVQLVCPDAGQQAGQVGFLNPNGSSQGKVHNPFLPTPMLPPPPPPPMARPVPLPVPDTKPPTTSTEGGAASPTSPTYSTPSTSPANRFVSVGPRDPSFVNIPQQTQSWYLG

B1: DNA-S (dsDNA)
DNA 1: AGTTGGCAAGTC
DNA 2: GACTTGCCAACT
Kd: 20.4 nM

Reference: publication PMC12830966
